Experimental data reported in patent US20230002480A1.

How the values were obtained:
Experiment in all cases: cell-based or functional assay
[1] = molecular target: HIV-1 Env of pseudovirus CNE5 (clade CRF01_AE) (HIV-1)
[2] = molecular target: HIV-1 Env of pseudovirus 3103.v3.c10 (clade ACD) (HIV-1)
[3] = molecular target: HIV-1 Env of pseudovirus 231966.c02 (clade D) (HIV-1)
[4] = molecular target: HIV-1 Env of pseudovirus Q23.17 (HIV-1)
[5] = molecular target: HIV-1 Env of pseudovirus 6811.v7.c18 (clade CD) (HIV-1)
[6] = molecular target: HIV-1 Env of pseudovirus 6952.v1.c20 (clade CD) (HIV-1)
[7] = molecular target: HIV-1 Env of pseudovirus 0815.v3.c3 (clade ACD) (HIV-1)
[8] = molecular target: HIV-1 Env of pseudovirus 3016.v5.c45 (clade D) (HIV-1)
[9] = molecular target: HIV-1 Env of pseudovirus 6041.v3.c23 (clade AC) (HIV-1)
[10] = molecular target: HIV-1 Env of pseudovirus HIV-0013095-2.11 (HIV-1)
[11] = molecular target: HIV-1 Env of pseudovirus X1632_S2_B10 (clade G) (HIV-1)
[12] = molecular target: HIV-1 Env of pseudovirus 89-F1_2_25 (clade CD) (HIV-1)
[13] = molecular target: HIV-1 Env of pseudovirus Q259.d2.17 (HIV-1)
[14] = molecular target: HIV-1 Env of pseudovirus X2131_C1_B5 (clade G) (HIV-1)
[15] = molecular target: HIV-1 Env of pseudovirus 6540.v4.c1 (clade AC) (HIV-1)
[16] = molecular target: HIV-1 Env of pseudovirus 231965.c01 (clade D) (HIV-1)
[17] = molecular target: HIV-1 Env of pseudovirus 3817.v2.c59 (clade CD) (HIV-1)
[18] = molecular target: HIV-1 Env of pseudovirus 3301.v1.c24 (clade AC) (HIV-1)
[19] = molecular target: HIV-1 Env of pseudovirus A07412M1.vrc12 (clade D) (HIV-1)
[20] = molecular target: HIV-1 Env of pseudovirus X1254_c3 (clade G) (HIV-1)
[21] = molecular target: HIV-1 Env of pseudovirus P1981_C5_3 (clade G) (HIV-1)
[22] = molecular target: HIV-1 Env of pseudovirus 6480.v4.c25 (clade CD) (HIV-1)
[23] = molecular target: HIV-1 Env of pseudovirus REJO4541.67 (HIV-1)
[24] = molecular target: HIV-1 Env of pseudovirus 6545.v4.c1 (clade AC) (HIV-1)
[25] = molecular target: HIV-1 Env pseudovirus 6952.v1.c20 (HIV-1)
[26] = molecular target: HIV-1 Env pseudovirus T257-31 (HIV-1)
[27] = molecular target: HIV-1 Env pseudovirus X1632_S2_B10 (HIV-1)

PG16 (antibody)
IC50, titer in TZM.bl cells [1]: 0.008 µg/mL | IC80, titer in TZM.bl cells [1]: 0.033 µg/mL | IC50, titer in TZM.bl cells [2]: 25.4 µg/mL | IC80, titer in TZM.bl cells [2]: > 50 µg/mL | IC50, titer in TZM.bl cells [3]: 0.007 µg/mL | IC80, titer in TZM.bl cells [3]: 0.031 µg/mL | IC50, titer in TZM.bl cells [4]: 0.008 µg/mL | IC80, titer in TZM.bl cells [4]: 0.043 µg/mL | IC50, titer in TZM.bl cells [5]: > 50 µg/mL | IC80, titer in TZM.bl cells [5]: > 50 µg/mL | IC50, titer in TZM.bl cells [6]: 21.9 µg/mL | IC80, titer in TZM.bl cells [6]: > 50 µg/mL | IC50, titer in TZM.bl cells [7]: > 50 µg/mL | IC80, titer in TZM.bl cells [7]: > 50 µg/mL | IC50, titer in TZM.bl cells [8]: > 50 µg/mL | IC80, titer in TZM.bl cells [8]: > 50 µg/mL | IC50, titer in TZM.bl cells [9]: 0.048 µg/mL | IC80, titer in TZM.bl cells [9]: 0.256 µg/mL | IC50, titer in TZM.bl cells [10]: 0.002 µg/mL | IC80, titer in TZM.bl cells [10]: 0.006 µg/mL | IC50, titer in TZM.bl cells [11]: 0.012 µg/mL | IC80, titer in TZM.bl cells [11]: 0.076 µg/mL | IC50, titer in TZM.bl cells [12]: 47.6 µg/mL | IC80, titer in TZM.bl cells [12]: > 50 µg/mL | IC50, titer in TZM.bl cells [13]: 0.065 µg/mL | IC80, titer in TZM.bl cells [13]: 45.9 µg/mL | IC50, titer in TZM.bl cells [14]: 0.024 µg/mL | IC80, titer in TZM.bl cells [14]: 0.139 µg/mL | IC50, titer in TZM.bl cells [15]: 0.035 µg/mL | IC80, titer in TZM.bl cells [15]: 0.42 µg/mL | IC50, titer in TZM.bl cells [16]: 1.44 µg/mL | IC80, titer in TZM.bl cells [16]: > 50 µg/mL | IC50, titer in TZM.bl cells [17]: 0.008 µg/mL | IC80, titer in TZM.bl cells [17]: 0.06 µg/mL | IC50, titer in TZM.bl cells [18]: 0.02 µg/mL | IC80, titer in TZM.bl cells [18]: 0.087 µg/mL | IC50, titer in TZM.bl cells [19]: 0.343 µg/mL | IC80, titer in TZM.bl cells [19]: > 50 µg/mL | IC50, titer in TZM.bl cells [20]: 0.023 µg/mL | IC80, titer in TZM.bl cells [20]: 0.218 µg/mL | IC50, titer in TZM.bl cells [21]: 0.376 µg/mL | IC80, titer in TZM.bl cells [21]: > 50 µg/mL | IC50, titer in TZM.bl cells [22]: > 50 µg/mL | IC80, titer in TZM.bl cells [22]: > 50 µg/mL | IC50, titer in TZM.bl cells [23]: 0.039 µg/mL | IC80, titer in TZM.bl cells [23]: 13.4 µg/mL | IC50, titer in TZM.bl cells [24]: 0.044 µg/mL | IC80, titer in TZM.bl cells [24]: 1.56 µg/mL

N49P9.1 (antibody)
IC50 [4]: 0.029 µg/mL | IC80 [4]: 0.106 µg/mL | MPI [4]: 100 | IC50 [25]: 0.119 µg/mL | IC80 [25]: 0.389 µg/mL | MPI [25]: 100 | IC50 [10]: 0.358 µg/mL | IC80 [10]: 1.26 µg/mL | MPI [10]: 100 | IC50 [26]: 0.508 µg/mL | IC80 [26]: 1.82 µg/mL | MPI [26]: 100 | IC50 [13]: > 50 µg/mL | IC80 [13]: > 50 µg/mL | MPI [13]: 48 | IC50 [27]: > 50 µg/mL | IC80 [27]: > 50 µg/mL | MPI [27]: 10 | IC50 [23]: 0.064 µg/mL | IC80 [23]: 0.231 µg/mL | MPI [23]: 100

N49P19 (antibody)
IC50 [4]: 0.234 µg/mL | IC80 [4]: 1.37 µg/mL | MPI [4]: 100 | IC50 [25]: > 50 µg/mL | IC80 [25]: > 50 µg/mL | MPI [25]: 0 | IC50 [10]: > 50 µg/mL | IC80 [10]: > 50 µg/mL | MPI [10]: 18 | IC50 [26]: 0.661 µg/mL | IC80 [26]: 3 µg/mL | MPI [26]: 100 | IC50 [13]: > 50 µg/mL | IC80 [13]: > 50 µg/mL | MPI [13]: 11 | IC50 [27]: > 50 µg/mL | IC80 [27]: > 50 µg/mL | MPI [27]: 14 | IC50 [23]: 0.169 µg/mL | IC80 [23]: 0.859 µg/mL | MPI [23]: 100
